# Assay results from article PMC3374333 (Nature neuroscience, 2012).
# B1: GBR1bVFT (Venus Flytrap module of the extracellular domain of human GABAB receptor subunit GBR1b) (domain or fragment, UniProt Q9UBS5-2 30-459, looked up)
# chain: SHSPHLPRPHSRVPPHPSSERRAVYIGALFPMSGGWPGGQACQPAVEMALEDVNSRRDILPDYELKLIHHDSKCDPGQATKYLYELLYNDPIKIILMPGCSSVSTLVAEAARMWNLIVLSYGSSSPALSNRQRFPTFFRTHPSATLHNPTRVKLFEKWGWKKIATIQQTTEVFTSTLDDLEERVKEAGIEITFRQSFFSDPAVPVKNLKRQDARIIVGLFYETEARKVFCEVYKERLFGKKYVWFLIGWYADNWFKIYDPSINCTVDEMTEAVEGHITTEIVMLNPANTRSISNMTSQEFVEKLTKRLKRHPEETGGFQEAPLAYDAIWALALALNKTSGGGGRSGVRLEDFNYNNQTITDQIYRAMNSSSFEGVSGHVVFDASGSRMAWTLIEQLQGGSYKKIGYYDSTKDDLSWSKTDKWIGGSPPAD
# Biological target: the molecule itself
# Test: SEC
protein,measurement,value
B1,stoichiometry N,2
